Tests used:
purified protein = substrate: CC(=O)O; assay: purified protein; conditions: acetyl-CoA-forming direction (acetate limiting), 37°C
[1] = substrate: CC(C)(COP(=O)(O)OP(=O)(O)OC[C@H]1O[C@@H](n2cnc3c(N)ncnc32)[C@H](O)[C@@H]1OP(=O)(O)O)[C@@H](O)C(=O)NCCC(=O)NCCS; assay: coupled enzyme assay, NAD(H) oxidation; format: biochemical, Syntrophus aciditrophicus; conditions: acetyl-CoA-forming direction (CoA limiting), 37°C
From the text: coupled enzyme assay, NAD(H) oxidation on Purified Acs1 (native AMP-forming, acetyl-CoA synthetase)

[2] = substrate: O=P(O)(O)OP(=O)(O)O; assay: ATP formation coupled to hexokinase / glucose-6-phosphate dehydrogenase, NADP+ reduction; format: biochemical, Syntrophus aciditrophicus; conditions: acetate-forming direction (pyrophosphate limiting), AMP and acetyl-CoA co-substrates, 37°C, enzyme purified without ammonium sulfate fractionation
From the text: ATP formation coupled to hexokinase / glucose-6-phosphate dehydrogenase, NADP+ reduction on Purified Acs1 (native AMP-forming, acetyl-CoA synthetase)

[3] = substrate: CC(C)(COP(=O)(O)OP(=O)(O)OC[C@H]1O[C@@H](n2cnc3c(N)ncnc32)[C@H](O)[C@@H]1OP(=O)(O)O)[C@@H](O)C(=O)NCCC(=O)NCCS; assay: coupled enzyme assay, NAD(H) oxidation; format: biochemical, Syntrophus aciditrophicus; conditions: acetyl-CoA-forming direction (CoA limiting), 37°C; remark: listed apart in the source
From the text: coupled enzyme assay, NAD(H) oxidation on Recombinant Acs1 (SYN_02635 gene product)

B1: Purified Acs1 (native AMP-forming, acetyl-CoA synthetase) (Syntrophus aciditrophicus SB) (protein)
chain: MGEESILKEFYPVPERIKAKAWVKGRGEYDKLYAESIADSAAWWAKQADEILTFYKKWDKVEDFNFDIRKGPIHVKYFEGAKLNVSYNCLDRHLATKGDKVAIQWEGNEPGEQKAYTYKDLHTEVCKFANVLKKHGIKRGDRVCIYTPMVVEAAIAMLACTRIGAVHAIVFGGFSSDALAVRIQDAQAKLLVVCDGTFRGAKAVPQKKDADVALKECPTIEKVIVVRRVGDKIACDMTPGRDLWWHDEMATVDANCECEQMDAEDTLFILYTSGSTGQPKGALHTTAGYLLYAAYTSKFAFDLHDEDIHWCTADIGWVTGHSYVVYGPLALGATSIMFEGVPNYPTYSRFWQVVEKYKVTSFYTAPTAIRAIAKEGDEWLKGIDLSSLRVLSSVGEPLNPEAWQWFYEKIGNSQCPIVDTWWQTETGGHMILPLPGAIDIKPAKPALPIMGVIPTLVDDQTGEELKNMEANGALCFKTAWPGITRTIYGDHKRYEETYFEPYPGNYFSGDGALRDKDGYYRITGRIDDVINVSGHRMGTAEIEATLNAHEKVAESAVVGYPHEVKGQSIYAYITLKTGFEPSEDLKKELTQYVRTIIGPIATPEKIQWADGLPKTRSGKIMRRILKKVAANELGDLGDTSTLADPAVVDDLVKNRL
notes: native, purified from crotonate-grown pure-culture cell extracts; single band ~74 kDa on denaturing gel; untagged
Question: B1 was tested. Which Km (purified protein) did it give?
Answer: The Km was 0.59 ± 0.2 mM.

Question: And the Km [1]?
Answer: The Km was 0.26 ± 0.1 mM.

Question: And the Km [2]?
Answer: The Km was 0.25 ± 0.02 mM.

B2: Recombinant Acs1 (SYN_02635 gene product) (Syntrophus aciditrophicus SB) (protein)
chain: MGEESILKEFYPVPERIKAKAWVKGRGEYDKLYAESIADSAAWWAKQADEILTFYKKWDKVEDFNFDIRKGPIHVKYFEGAKLNVSYNCLDRHLATKGDKVAIQWEGNEPGEQKAYTYKDLHTEVCKFANVLKKHGIKRGDRVCIYTPMVVEAAIAMLACTRIGAVHAIVFGGFSSDALAVRIQDAQAKLLVVCDGTFRGAKAVPQKKDADVALKECPTIEKVIVVRRVGDKIACDMTPGRDLWWHDEMATVDANCECEQMDAEDTLFILYTSGSTGQPKGALHTTAGYLLYAAYTSKFAFDLHDEDIHWCTADIGWVTGHSYVVYGPLALGATSIMFEGVPNYPTYSRFWQVVEKYKVTSFYTAPTAIRAIAKEGDEWLKGIDLSSLRVLSSVGEPLNPEAWQWFYEKIGNSQCPIVDTWWQTETGGHMILPLPGAIDIKPAKPALPIMGVIPTLVDDQTGEELKNMEANGALCFKTAWPGITRTIYGDHKRYEETYFEPYPGNYFSGDGALRDKDGYYRITGRIDDVINVSGHRMGTAEIEATLNAHEKVAESAVVGYPHEVKGQSIYAYITLKTGFEPSEDLKKELTQYVRTIIGPIATPEKIQWADGLPKTRSGKIMRRILKKVAANELGDLGDTSTLADPAVVDDLVKNRL
Question: How did the Km (purified protein) turn out when B2 was run?
Answer: The Km was 0.96 ± 0.02 mM.

Question: And the Km [3]?
Answer: Its Km is 0.21 ± 0.05 mM.
